{"source": "patent US12186374B2", "about": "(Sanofi-Aventis Deutschland GmbH, priority 2014, dated 2025)", "system": "patients with Type 2 diabetes mellitus (T2DM)", "assay": "Treatment-emergent adverse events incl. serious, fatal, leading to discontinuation (Example 2)", "key": {"[1]": {"settings": "PT ≥3% in any treatment group, Safety population"}}}
{"substance": "Gly(A21)-Arg(B31)-Arg(B32)-human insulin [Insulin Glargine]", "values": [{"measurement": "Diarrhea, % of patients", "setting": "Example 2", "result": 4.3, "unit": "%"}, {"measurement": "Nausea, % of patients", "setting": "Example 2", "result": 3.6, "unit": "%"}, {"measurement": "Nausea, number of patients", "setting": "Example 2", "result": 17, "unit": "patients"}, {"measurement": "Overall incidence of gastrointestinal adverse events", "setting": "Example 2", "result": 12.6, "unit": "%"}, {"measurement": "Patients reporting treatment-emergent adverse events, %", "setting": "Example 2", "result": 48.6, "unit": "%"}, {"measurement": "Patients reporting treatment-emergent adverse events, number", "setting": "Example 2", "result": 227, "unit": "patients"}, {"measurement": "Patients who withdrew from treatment due to TEAEs", "setting": "Example 2", "result": 1.9, "unit": "%"}, {"measurement": "Patients with at least 1 TEAE leading to death", "setting": "Example 2", "result": 3, "unit": "patients"}, {"measurement": "Serious TEAEs, % of patients", "setting": "Example 2", "result": 4.1, "unit": "%"}, {"measurement": "Serious TEAEs, number of patients", "setting": "Example 2", "result": 19, "unit": "patients"}, {"measurement": "Upper respiratory tract infection, % of patients", "setting": "Example 2", "result": 4.9, "unit": "%"}, {"measurement": "Withdrawals caused by gastrointestinal adverse events", "setting": "Example 2", "result": 0.2, "unit": "%"}, {"measurement": "TEAE: Back pain", "setting": "[1]", "result": "10 (2.1%) n (%)"}, {"measurement": "TEAE: Diarrhoea", "setting": "[1]", "result": "20 (4.3%) n (%)"}, {"measurement": "TEAE: Dizziness", "setting": "[1]", "result": "7 (1.5%) n (%)"}, {"measurement": "TEAE: Headache", "setting": "[1]", "result": "15 (3.2%) n (%)"}, {"measurement": "TEAE: Influenza", "setting": "[1]", "result": "11 (2.4%) n (%)"}, {"measurement": "TEAE: Nasopharyngitis", "setting": "[1]", "result": "25 (5.4%) n (%)"}, {"measurement": "TEAE: Nausea", "setting": "[1]", "result": "17 (3.6%) n (%)"}, {"measurement": "TEAE: Upper respiratory tract infection", "setting": "[1]", "result": "23 (4.9%) n (%)"}, {"measurement": "TEAE: Vomiting", "setting": "[1]", "result": "7 (1.5%) n (%)"}, {"measurement": "Serious TEAE: Acquired phimosis", "setting": "PT, Safety population", "result": "0 n (%)"}, {"measurement": "Serious TEAE: Acute kidney injury", "setting": "PT, Safety population", "result": "0 n (%)"}, {"measurement": "Serious TEAE: Acute myocardial infarction", "setting": "PT, Safety population", "result": "1 (0.2%) n (%)"}, {"measurement": "Serious TEAE: Acute pulmonary oedema", "setting": "PT, Safety population", "result": "1 (0.2%) n (%)"}, {"measurement": "Serious TEAE: Anaphylactic reaction", "setting": "PT, Safety population", "result": "0 n (%)"}, {"measurement": "Serious TEAE: Angioedema", "setting": "PT, Safety population", "result": "0 n (%)"}, {"measurement": "Serious TEAE: Bladder prolapse", "setting": "PT, Safety population", "result": "1 (0.2%) n (%)"}, {"measurement": "Serious TEAE: Bronchitis", "setting": "PT, Safety population", "result": "1 (0.2%) n (%)"}, {"measurement": "Serious TEAE: Calculus urinary", "setting": "PT, Safety population", "result": "1 (0.2%) n (%)"}, {"measurement": "Serious TEAE: Cardiac failure acute", "setting": "PT, Safety population", "result": "1 (0.2%) n (%)"}, {"measurement": "Serious TEAE: Cardiac failure chronic", "setting": "PT, Safety population", "result": "1 (0.2%) n (%)"}, {"measurement": "Serious TEAE: Cardiac failure congestive", "setting": "PT, Safety population", "result": "1 (0.2%) n (%)"}, {"measurement": "Serious TEAE: Cervical dysplasia", "setting": "PT, Safety population", "result": "0 n (%)"}, {"measurement": "Serious TEAE: Cholecystitis chronic", "setting": "PT, Safety population", "result": "0 n (%)"}, {"measurement": "Serious TEAE: Chronic obstructive pulmonary disease", "setting": "PT, Safety population", "result": "1 (0.2%) n (%)"}, {"measurement": "Serious TEAE: Comminuted fracture", "setting": "PT, Safety population", "result": "1 (0.2%) n (%)"}, {"measurement": "Serious TEAE: Coronary artery disease", "setting": "PT, Safety population", "result": "1 (0.2%) n (%)"}, {"measurement": "Serious TEAE: Costochondritis", "setting": "PT, Safety population", "result": "1 (0.2%) n (%)"}, {"measurement": "Serious TEAE: Death", "setting": "PT, Safety population", "result": "0 n (%)"}, {"measurement": "Serious TEAE: Diabetes mellitus inadequate control", "setting": "PT, Safety population", "result": "0 n (%)"}, {"measurement": "Serious TEAE: Dyspnoea", "setting": "PT, Safety population", "result": "1 (0.2%) n (%)"}, {"measurement": "Serious TEAE: Electrocardiogram ST-T segment abnormal", "setting": "PT, Safety population", "result": "0 n (%)"}, {"measurement": "Serious TEAE: Erysipelas", "setting": "PT, Safety population", "result": "0 n (%)"}, {"measurement": "Serious TEAE: Febrile infection", "setting": "PT, Safety population", "result": "0 n (%)"}, {"measurement": "Serious TEAE: Hydronephrosis", "setting": "PT, Safety population", "result": "1 (0.2%) n (%)"}, {"measurement": "Serious TEAE: Hypertension", "setting": "PT, Safety population", "result": "1 (0.2%) n (%)"}, {"measurement": "Serious TEAE: Lacunar infarction", "setting": "PT, Safety population", "result": "1 (0.2%) n (%)"}, {"measurement": "Serious TEAE: Lipase increased", "setting": "PT, Safety population", "result": "1 (0.2%) n (%)"}, {"measurement": "Serious TEAE: Lung cancer metastatic", "setting": "PT, Safety population", "result": "0 n (%)"}, {"measurement": "Serious TEAE: Lung neoplasm malignant", "setting": "PT, Safety population", "result": "0 n (%)"}, {"measurement": "Serious TEAE: Meningitis staphylococcal", "setting": "PT, Safety population", "result": "0 n (%)"}, {"measurement": "Serious TEAE: Metabolic acidosis", "setting": "PT, Safety population", "result": "0 n (%)"}, {"measurement": "Serious TEAE: Metastases to liver", "setting": "PT, Safety population", "result": "0 n (%)"}, {"measurement": "Serious TEAE: Metrorrhagia", "setting": "PT, Safety population", "result": "0 n (%)"}, {"measurement": "Serious TEAE: Myocardial infarction", "setting": "PT, Safety population", "result": "1 (0.2%) n (%)"}, {"measurement": "Serious TEAE: Non-cardiac chest pain", "setting": "PT, Safety population", "result": "1 (0.2%) n (%)"}, {"measurement": "Serious TEAE: Oesophagitis", "setting": "PT, Safety population", "result": "0 n (%)"}, {"measurement": "Serious TEAE: Palpitations", "setting": "PT, Safety population", "result": "0 n (%)"}, {"measurement": "Serious TEAE: Pancreatic carcinoma", "setting": "PT, Safety population", "result": "1 (0.2%) n (%)"}, {"measurement": "Serious TEAE: Pancytopenia", "setting": "PT, Safety population", "result": "1 (0.2%) n (%)"}, {"measurement": "Serious TEAE: Pneumonia", "setting": "PT, Safety population", "result": "1 (0.2%) n (%)"}, {"measurement": "Serious TEAE: Prostate cancer recurrent", "setting": "PT, Safety population", "result": "1 (0.2%) n (%)"}, {"measurement": "Serious TEAE: Pyelonephritis acute", "setting": "PT, Safety population", "result": "1 (0.2%) n (%)"}, {"measurement": "Serious TEAE: Radiculopathy", "setting": "PT, Safety population", "result": "0 n (%)"}, {"measurement": "Serious TEAE: Renal colic", "setting": "PT, Safety population", "result": "0 n (%)"}, {"measurement": "Serious TEAE: Respiratory failure", "setting": "PT, Safety population", "result": "0 n (%)"}, {"measurement": "Serious TEAE: Spinal osteoarthritis", "setting": "PT, Safety population", "result": "0 n (%)"}, {"measurement": "Serious TEAE: Squamous cell carcinoma of skin", "setting": "PT, Safety population", "result": "0 n (%)"}, {"measurement": "Serious TEAE: Squamous cell carcinoma of the oral cavity", "setting": "PT, Safety population", "result": "1 (0.2%) n (%)"}, {"measurement": "Serious TEAE: Tendon rupture", "setting": "PT, Safety population", "result": "0 n (%)"}, {"measurement": "Serious TEAE: Thyroid adenoma", "setting": "PT, Safety population", "result": "1 (0.2%) n (%)"}, {"measurement": "Serious TEAE: Toxicity to various agents", "setting": "PT, Safety population", "result": "0 n (%)"}, {"measurement": "Serious TEAE: Transient ischaemic attack", "setting": "PT, Safety population", "result": "0 n (%)"}, {"measurement": "Serious TEAE: Urinary tract infection", "setting": "PT, Safety population", "result": "0 n (%)"}, {"measurement": "Serious TEAE: Urosepsis", "setting": "PT, Safety population", "result": "1 (0.2%) n (%)"}, {"measurement": "Serious TEAE: Urticaria", "setting": "PT, Safety population", "result": "0 n (%)"}, {"measurement": "TEAE leading to death: Acute myocardial infarction", "setting": "PT, Safety population", "result": "1 (0.2%) n (%)"}, {"measurement": "TEAE leading to death: Acute pulmonary oedema", "setting": "PT, Safety population", "result": "1 (0.2%) n (%)"}, {"measurement": "TEAE leading to death: Cardiac failure acute", "setting": "PT, Safety population", "result": "1 (0.2%) n (%)"}, {"measurement": "TEAE leading to death: Cardiac failure congestive", "setting": "PT, Safety population", "result": "0 n (%)"}, {"measurement": "TEAE leading to death: Death", "setting": "PT, Safety population", "result": "0 n (%)"}, {"measurement": "TEAE leading to death: Lung cancer metastatic", "setting": "PT, Safety population", "result": "0 n (%)"}, {"measurement": "TEAE leading to death: Squamous cell carcinoma of the oral cavity", "setting": "PT, Safety population", "result": "1 (0.2%) n (%)"}]}
